Laboratory results as given in US20220096608.

Molecular target: α2-antiplasmin (UniProt P08697)
Sequence (P08697 40-491): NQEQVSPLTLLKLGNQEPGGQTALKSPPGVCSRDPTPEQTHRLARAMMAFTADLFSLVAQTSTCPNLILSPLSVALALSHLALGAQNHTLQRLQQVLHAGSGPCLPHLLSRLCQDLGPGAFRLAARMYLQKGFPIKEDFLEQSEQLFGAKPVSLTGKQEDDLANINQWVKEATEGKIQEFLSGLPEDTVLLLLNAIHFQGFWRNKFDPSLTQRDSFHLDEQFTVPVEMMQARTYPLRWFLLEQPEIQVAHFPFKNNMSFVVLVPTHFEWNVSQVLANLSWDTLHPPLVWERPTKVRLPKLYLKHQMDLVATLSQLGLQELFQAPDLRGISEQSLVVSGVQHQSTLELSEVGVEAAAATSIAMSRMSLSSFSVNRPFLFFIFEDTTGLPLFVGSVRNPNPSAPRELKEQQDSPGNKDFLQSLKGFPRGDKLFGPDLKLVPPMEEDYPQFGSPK

Sequence of Mono-PEGylated Micro-plasmin variant (20 kDa PEG) E85C Catalytic Domain (SEQ ID NO. 7) (chain, as listed by the source E85C): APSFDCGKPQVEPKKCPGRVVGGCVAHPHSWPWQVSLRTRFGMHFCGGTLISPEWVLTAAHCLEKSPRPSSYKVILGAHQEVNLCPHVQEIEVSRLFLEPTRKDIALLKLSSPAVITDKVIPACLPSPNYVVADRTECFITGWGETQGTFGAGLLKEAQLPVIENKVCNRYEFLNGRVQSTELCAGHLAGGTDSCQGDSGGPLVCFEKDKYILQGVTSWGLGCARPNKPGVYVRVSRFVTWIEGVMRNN
Sequence of Mono-PEGylated Micro-plasmin variant (20 kDa PEG) P86C Catalytic Domain (SEQ ID NO. 8) (chain, as listed by the source P86C): as the sequence (chain, as listed by the source E85C) above, with C85E, P86C counted along it
Sequence of Mono-PEGylated Micro-plasmin variant (20 kDa PEG) V88C Catalytic Domain (SEQ ID NO. 10) (chain, as listed by the source V88C): as the sequence (chain, as listed by the source E85C) above, with C85E, V88C counted along it
Sequence of Mono-PEGylated Micro-plasmin variant (40 kDa PEG) E85C Catalytic Domain (SEQ ID NO. 7) (chain, as listed by the source E85C): as the sequence (chain, as listed by the source E85C) above
Sequence of Bi-PEGylated Micro-plasmin variant (20 kDa-20 kDa PEG) E85C-H87C Catalytic Domain (SEQ ID NO. 11) (chain, as listed by the source E85C H87C): as the sequence (chain, as listed by the source E85C) above, with H87C counted along it
Sequence of Mono-PEGylated Micro-plasmin variant (40 kDa PEG) P86C Catalytic Domain (SEQ ID NO. 8) (chain, as listed by the source P86C): as the sequence (chain, as listed by the source E85C) above, with C85E, P86C counted along it
Sequence of Mono-PEGylated Micro-plasmin variant (40 kDa PEG) V88C Catalytic Domain (SEQ ID NO. 10) (chain, as listed by the source V88C): as the sequence (chain, as listed by the source E85C) above, with C85E, V88C counted along it

Substance	In vitro Half-life (of inactivation by α2-antiplasmin) [min]
Bi-PEGylated Micro-plasmin variant (20 kDa-20 kDa PEG) E85C-H87C Catalytic Domain (SEQ ID NO. 11)	>10
Mono-PEGylated Micro-plasmin variant (20 kDa PEG) E85C Catalytic Domain (SEQ ID NO. 7)	6 to 7
Mono-PEGylated Micro-plasmin variant (20 kDa PEG) P86C Catalytic Domain (SEQ ID NO. 8)	6 to 7
Mono-PEGylated Micro-plasmin variant (20 kDa PEG) V88C Catalytic Domain (SEQ ID NO. 10)	6 to 7
Mono-PEGylated Micro-plasmin variant (40 kDa PEG) E85C Catalytic Domain (SEQ ID NO. 7)	>7
Mono-PEGylated Micro-plasmin variant (40 kDa PEG) P86C Catalytic Domain (SEQ ID NO. 8)	>7
Mono-PEGylated Micro-plasmin variant (40 kDa PEG) V88C Catalytic Domain (SEQ ID NO. 10)	>7
